Measurements as given in patent US20210130470A1 (MacroGenics, published 2021).
Changes are numbered by the printed parent chain.

Assays:
[1] = target: T1, His-tagged soluble cynomolgus monkey CTLA-4 (cynomolgus monkey); assay: BIACORE, His-tagged soluble cyno CTLA-4 captured on anti-PentaHis, binder passed over at 12.5-200 nM; avidity by separate ka/kd 1:1 fit
T1 construct: extracellular domain; also called Cyno CTLA-4
Method: Briefly, His-tagged soluble CTLA-4 (an extracellular portion of human or cynomolgus monkey CTLA-4 fused to a histidine-containing peptide) was captured on immobilized anti-PentaHis and then different concentrations (12.5-200 nM) of the CTLA-4 binding molecules were passed over the immobilized CTLA-4 proteins. The kinetics of binding were determined via BIACORE® analysis (affinity by 1:1 Langmuir binding model (simultaneous ka/kd); or avidity by separate ka/kd 1:1 fit).

[2] = target: T2, cynomolgus monkey CTLA-4 expressed on CHO cells (cynomolgus monkey, UniProt G7PL88 36-223); assay: flow cytometry on CHO cells expressing cynomolgus monkey CTLA-4, anti-human Fc secondary antibody, GMFI
T2 construct: also called cynoCTLA-4
T2 sequence: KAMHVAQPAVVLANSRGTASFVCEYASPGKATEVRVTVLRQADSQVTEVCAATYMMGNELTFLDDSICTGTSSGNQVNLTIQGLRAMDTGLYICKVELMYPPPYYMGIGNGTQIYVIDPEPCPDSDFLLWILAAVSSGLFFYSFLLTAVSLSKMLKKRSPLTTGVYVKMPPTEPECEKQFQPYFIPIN

[3] = target: T3, PD-1 expressed on the cell surface (human, UniProt Q15116 21-288); assay: flow cytometry on NSO cells expressing PD-1 but not CTLA-4, MFI (APC)
T3 construct: also called NSO cells expressing PD-1; NSO-PD-1 cells

[4] = target: T3, PD-1 expressed on the cell surface; assay: cell-based competition (FACS): blocked ligand PD-L2-PE binding to NSO-PD-1 cells, MFI
[5] = target: T4, human CTLA-4 expressed on the cell surface (human, UniProt P16410 36-223); assay: flow cytometry on CHO cells expressing human CTLA-4, anti-human Fc secondary antibody, GMFI
T4 construct: also called huCTLA-4; CHO cells expressing human CTLA-4
T4 sequence: T2 sequence with N14S, T18I, M106L

[6] = target: T3, PD-1 expressed on the cell surface; assay: cell-based competition (FACS): blocked ligand PD-L1-PE binding to NSO-PD-1 cells, MFI
[7] = target: T5, hPD-1-His (human, UniProt Q15116 25-170, limits assumed); assay: ELISA: shPD-1-his coated, detection goat anti-human Fc-gamma-HRP 1:10000, chemiluminescence RLU
T5 construct: also called His-tagged soluble human PD-1; shPD-1
Text: FIGS. 8A-8D show the results of ELISA studies measuring the binding of serially diluted binding molecules to human CTLA-4 and human PD-1. […] Goat anti-human-Fc-HRP (1:10,000) was employed as the secondary detection molecule to detect binding. FIGS. 8C-8D show the results of a study on the effect of altering orientations and binding domains on binding. […] Goat anti-human-Fcγ-HRP was employed as the secondary detection molecule to detect binding using PICO chemiluminescent substrate.

[8] = target: T4, human CTLA-4 expressed on the cell …; assay: cell-based competition: blocked ligand His-B7-1 10 ng/ml binding to CTLA-4 Jurkat cells, detected with anti-His antibody, GMFI-APC
[9] = target: T4, human CTLA-4 expressed on the cell …; assay: cell-based competition: blocked ligand His-B7-2 116.8 ng/ml binding to CTLA-4 Jurkat cells, detected with anti-His antibody, GMFI-APC
[10] = target: T5, hPD-1-His; assay: competition ELISA: plate coated with shPD-1 and irrelevant antigen 1:1 (2 ug/ml each); blocked ligand biotin-labeled PD-L1 6 ug/ml, streptavidin-HRP, RLU
Method: A series of ELISA assays were conducted to evaluate the ability of bispecific molecules of the invention to block ligand binding to PD-1 and […], alone and in combination. […] Plates were coated with a 1:1 mix of His-tagged soluble human PD-1 (shPD-1) and a His-tagged irrelevant antigen (irrAg) (2 μg/ml each), or a 1:1 mix of shPD-1 and a His-tagged soluble human CTLA-4 (shCTLA-4) (2 μg/ml each).

B1: DART D (bispecific antibody, human IgG4 S228P)
chain 1: EIVLTQSPATLSLSPGERATLSCRASESVDNYGMSFMNWFQQKPGQPPKLLIHAASNQGSGVPSRFSGSGSGTDFTLTISSLEPEDFAVYFCQQSKEVPYTFGGGTKVEIKGGGSGGGGQVQLVESGGGVVQPGRSLRLSCAASGFTFSSYTMHWVRQAPGKGLEWVTFISYDGSNKHYADSVKGRFTVSRDNSKNTLYLQMNSLRAEDTAIYYCARTGWLGPFDYWGQGTLVTVSSGGCGGGEVAACEKEVAALEKEVAALEKEVAALEKESKYGPPCPPCPAPEFLGGPSVFLFPPKPKDTLYITREPEVTCVVVDVSQEDPEVQFNWYVDGVEVHNAKTKPREEQFNSTYRVVSVLTVLHQDWLNGKEYKCKVSNKGLPSSIEKTISKAKGQPREPQVYTLPPSQEEMTKNQVSLTCLVKGFYPSDIAVEWESNGQPENNYKTTPPVLDSDGSFFLYSRLTVDKSRWQEGNVFSCSVMHEALHNHYTQKSLSLSLG
chain 2: not shown
notes: Four-chain Fc diabody, PD-1 mAb 6-ISQ x CTLA-4 mAb 3, IgG4 (YTE), E/K-coils
Kd [1]: 4.9 nM | EC50 (read off the curve) [2]: ~2 nM | EC50 (read off the curve) [3]: ~1 nM | IC50 (read off the curve) [4]: ~1 nM | EC50 (read off the curve) [5]: ~2 nM | IC50 (read off the curve) [6]: ~0.8 nM | EC50 (read off the curve) [7]: ~0.5 nM | IC50 (read off the curve) [8]: ~4 nM | IC50 (read off the curve) [9]: ~5 nM | IC50 (read off the curve) [10]: ~0.8 nM
